Experimental data: publication doi:10.1101/2020.12.09.418111

Biological target: T1, Kaiso without BTB/POZ domain, GST fusion (UniProt Q86T24 113-672)
T1 sequence: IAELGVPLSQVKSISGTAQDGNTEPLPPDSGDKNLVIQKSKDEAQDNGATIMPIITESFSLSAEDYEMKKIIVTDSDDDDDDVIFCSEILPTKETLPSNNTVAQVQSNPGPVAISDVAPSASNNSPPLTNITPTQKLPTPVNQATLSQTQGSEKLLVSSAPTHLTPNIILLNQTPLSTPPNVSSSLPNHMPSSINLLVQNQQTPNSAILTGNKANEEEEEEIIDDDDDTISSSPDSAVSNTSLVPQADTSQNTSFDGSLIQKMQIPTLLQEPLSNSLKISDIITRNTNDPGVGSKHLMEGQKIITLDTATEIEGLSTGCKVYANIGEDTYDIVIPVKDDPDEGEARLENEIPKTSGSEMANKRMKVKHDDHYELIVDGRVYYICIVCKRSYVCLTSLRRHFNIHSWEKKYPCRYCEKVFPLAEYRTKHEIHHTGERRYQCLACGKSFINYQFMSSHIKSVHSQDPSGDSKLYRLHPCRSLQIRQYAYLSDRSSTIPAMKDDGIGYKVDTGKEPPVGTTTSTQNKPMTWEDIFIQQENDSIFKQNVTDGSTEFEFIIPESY
Assay: EMSA

B1: met-SM-FAM / met-SM methylated probe (dsDNA)
DNA 1: GCAGCCGCGCCCAACGCTGGGAGATC
DNA 2: TCCCCAGCGTTGGGCGCGGCTGCGATC
modifications: 5-methylcytosine (printed meC) at strand 1 positions 6, 8, 15 and strand 2 positions 8, 15, 17
B1: binds.
